According to US20240317834A1, “COMPOSITIONS AND METHODS FOR NEUROLOGICAL DISEASES” (CODA BIOTHERAPEUTICS, INC., priority 2020, published 2024):
Where a chain is given by its changes, count along the chain named. Names may count otherwise.

Tested on: Lenti-X 293T cells
Assay: YFP fluorescence quenching anion reporter plate reader assay of engineered receptors stimulated with acetylcholine or a non-native ligand
Format: cell-based
Settings: for percent quench of YFP fluorescence, 30 nM TC-6683: TC-6683 30 nM; for percent quench of YFP fluorescence, 300 nM TC-6683: TC-6683 300 nM; for percent quench of YFP fluorescence, 3 uM TC-6683: TC-6683 3 uM; for percent quench of YFP fluorescence, 30 uM TC-6683: TC-6683 30 uM; for percent quench of YFP fluorescence, 100 uM TC-6683: TC-6683 100 uM; for percent quench of YFP fluorescence, 10 uM ach: acetylcholine 10 uM; for percent quench of YFP fluorescence, 100 uM ach: acetylcholine 100 uM; for percent quench of YFP fluorescence, 1 mM ach: acetylcholine 1 mM; for percent quench of YFP fluorescence, 3 mM ach: acetylcholine 3 mM
Method in brief: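 YFP quench was followed for about 1 min 43 s after ligand delivered in iodide-based ECS, pH 7.2. Values are end-of-read fluorescence (last 10 s) divided by the pre-ligand baseline (15 s). Cells were LX293T, transfected with receptor DNA a day before the assay.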

B1: CODA534: engineered chimeric LGIC receptor, L131S, S172D in SEQ ID NO: 33 (protein)
chain: MRCSPGGVWLALAASLLHVSLQGEFQRKLYKELVKNYNPLERPVANDSQPLTVYFSLSLLQIMDVDEKNQVLTTNIWLQMSWTDHYLQWNVSEYPGVKTVRFPDGQIWKPDILLYNSADERFDATFHTNVSVNSSGHCQYLPPGIFKSSCPMDLKNFPMDVQTCKLKFGSWDYGGWSLDLQMQEADISGYIPNGEWDLVGIPGKRSERFYECCKEPYPDVTFTVTMRRRMGYYLIQMYIPSLLIVILSWISFWINMDAAPARVGLGITTVLTMTTQSSGSRASLPKVSYVKAIDIWMAVCLLFVFSALLEYAAVNFVSRQHKELLRFRRKRRHHKSPMLNLFQEDEAGEGRFNFSAYGMGPACLQAKDGISVKGANNSNTTNPPPAPSKSPEEMRKLFIQRAKKIDKISRIGFPMAFLIFNMFYWIIYKIVRREDVHNQ
modifications: synthetic sequence of chimeric LGIC
- YFP fluorescence quenching using CNL001 (1 nM CNL001, first column): 23.438%
- YFP fluorescence quenching using CNL001 (1 nM CNL001, second column): 28.59%
- YFP fluorescence quenching using TC-5619/Bradanicline (1 nM brd): −1.13%
- YFP fluorescence quenching using TC-5619/Bradanicline (3 nM brd): −3.83%
- YFP fluorescence quenching using CNL001 (10 nM CNL001, first column): 56.882%
- YFP fluorescence quenching using CNL001 (10 nM CNL001, second column): 56.777%
- YFP fluorescence quenching using TC-5619/Bradanicline (10 nM brd): −3.78%
- YFP fluorescence quenching using Facinicline (30 nM fac): −23.44
- YFP fluorescence quenching using CNL001 (50 nM CNL001, first column): 65.044%
- YFP fluorescence quenching using CNL001 (50 nM CNL001, second column): 67.373%
- YFP fluorescence quenching using ABT-126 (50 nM abt): −11.96%
- YFP fluorescence quenching using CNL001 (100 nM CNL001, first column): 68.666%
- YFP fluorescence quenching using CNL001 (100 nM CNL001, second column): 70.357%
- YFP fluorescence quenching using CNL002 (100 nM CNL002): 14.26%
- YFP fluorescence quenching using ABT-126 (100 nM abt): −10.72%
- YFP fluorescence quenching using AZD-0328 (100 nM azd0328): −9.32%
- YFP fluorescence quenching using TC-5619/Bradanicline (100 nM brd): −2.03%
- YFP fluorescence quenching using ABT-126 (300 nM abt): 11.65%
- YFP fluorescence quenching using AZD-0328 (300 nM azd0328): 4.94%
- YFP fluorescence quenching using Facinicline (300 nM fac): 2.75
- YFP fluorescence quenching using CNL001 (1 uM CNL001, first column): 73.019%
- YFP fluorescence quenching using CNL001 (1 uM CNL001, second column): 73.527%
- YFP fluorescence quenching using CNL002 (1 uM CNL002): 45.55%
- YFP fluorescence quenching using ABT-126 (1 uM abt): −3.06%
- YFP fluorescence quenching using TC-5619/Bradanicline (1 uM brd): 1.68%
- YFP fluorescence quenching using TC-6987 (1 uM tc6987): −20.99
- YFP fluorescence quenching using Facinicline (10 uM fac): 69.71
- YFP fluorescence quenching using TC-6987 (10 uM tc6987): −27.62
- YFP fluorescence quenching using CNL002 (30 uM CNL002): 64.93%
- YFP fluorescence quenching using AZD-0328 (30 uM azd0328): 60.61%
- YFP fluorescence quenching using Facinicline (30 uM fac): 61.44
- YFP fluorescence quenching using TC-6987 (500 uM tc6987): −24.22
- percent quench of YFP fluorescence, 30 nM TC-6683: −22.464%
- percent quench of YFP fluorescence, 300 nM TC-6683: −23.976%
- percent quench of YFP fluorescence, 3 uM TC-6683: −24.897%
- percent quench of YFP fluorescence, 30 uM TC-6683: −20.474%
- percent quench of YFP fluorescence, 100 uM TC-6683: −22.253%
- percent quench of YFP fluorescence, 10 uM ach: −11.3%
- percent quench of YFP fluorescence, 100 uM ach: −27.53%
- percent quench of YFP fluorescence, 1 mM ach: 2.84%
- percent quench of YFP fluorescence, 3 mM ach: 14.65%

B2: CODA535: engineered chimeric LGIC receptor, L131T, S172D in SEQ ID NO: 33 (protein)
chain: B1 chain with S131T
modifications: synthetic sequence of chimeric LGIC
- YFP fluorescence quenching using CNL001 (1 nM CNL001, first column): 8.736%
- YFP fluorescence quenching using CNL001 (1 nM CNL001, second column): 24.572%
- YFP fluorescence quenching using CNL001 (10 nM CNL001, first column): 60.552%
- YFP fluorescence quenching using CNL001 (10 nM CNL001, second column): 63.09%
- YFP fluorescence quenching using Facinicline (30 nM fac): −21.36
- YFP fluorescence quenching using CNL001 (50 nM CNL001, first column): 73.242%
- YFP fluorescence quenching using CNL001 (50 nM CNL001, second column): 73.889%
- YFP fluorescence quenching using ABT-126 (50 nM abt): −11.09%
- YFP fluorescence quenching using CNL001 (100 nM CNL001, first column): 76.147%
- YFP fluorescence quenching using CNL001 (100 nM CNL001, second column): 76.21%
- YFP fluorescence quenching using CNL002 (100 nM CNL002): 1.23%
- YFP fluorescence quenching using ABT-126 (100 nM abt): −10.37%
- YFP fluorescence quenching using AZD-0328 (100 nM azd0328): −7.02%
- YFP fluorescence quenching using ABT-126 (300 nM abt): −4%
- YFP fluorescence quenching using AZD-0328 (300 nM azd0328): −0.48%
- YFP fluorescence quenching using Facinicline (300 nM fac): 4.17
- YFP fluorescence quenching using CNL001 (1 uM CNL001, first column): 78.988%
- YFP fluorescence quenching using CNL001 (1 uM CNL001, second column): 78.818%
- YFP fluorescence quenching using CNL002 (1 uM CNL002): 35.77%
- YFP fluorescence quenching using ABT-126 (1 uM abt): 4.05%
- YFP fluorescence quenching using TC-6987 (1 uM tc6987): −21.8
- YFP fluorescence quenching using TC-6987 (10 uM tc6987): −27.08
- YFP fluorescence quenching using CNL002 (30 uM CNL002): 68.29%
- YFP fluorescence quenching using AZD-0328 (30 uM azd0328): 70.16%
- YFP fluorescence quenching using Facinicline (30 uM fac): 65.94
- YFP fluorescence quenching using TC-6987 (500 uM tc6987): −21.56
- percent quench of YFP fluorescence, 30 nM TC-6683: −29.362%
- percent quench of YFP fluorescence, 300 nM TC-6683: −28.954%
- percent quench of YFP fluorescence, 3 uM TC-6683: −23.708%
- percent quench of YFP fluorescence, 30 uM TC-6683: −23.431%
- percent quench of YFP fluorescence, 100 uM TC-6683: −18.324%
- percent quench of YFP fluorescence, 10 uM ach: −12.24%
- percent quench of YFP fluorescence, 100 uM ach: −26.23%
- percent quench of YFP fluorescence, 1 mM ach: −1.16%
- percent quench of YFP fluorescence, 3 mM ach: 2.97%
